The values below come from US20240043563A1.

Changes are numbered by the printed parent chain.

The labels stand for the following.
B1: murine anti-human MASP-2 monoclonal antibody 60 (antibody, V domains shown)
VH: QVQLQQSGAELMKPGASVKISCKATGYPFSTYWIEWVKQRPGHGLEWIGEILPGSDNTNYNEKFKGKATFTADTSSNTAYMQLSSLTSEDSAVYYCARRTTATRAWFVYWGQGTLVTVSA
VL: DIVMSQSPSSLAVSVGEKVTMSCKSSQSLLYSSNQKNYLAWYQQKPGQSPKLLIYWASTRESGVPDRFTGSGSGTDFTLTISSVRAEDLAVYYCQHYYTYPWTFGGGTNLEIK
B2: murine anti-human MASP-2 monoclonal antibody 124 (antibody, V domains shown)
VH: DVQLQESGPGLVKPSQSLSLTCTVTGYSITSDYAWNWIRQFPGNKLEWMGYISYSGRTSYNPSLKSRLSITRDTSKNQFFLQLTSVTTEDTATYYCARHYGDFWGQGTTLTVSS
VL: DIVMTQSQKFMSTSVGDRVSVTCKASQNVDTNVAWFQQKPGQSPKPLIYSASYRYSGVPDRFTGSGSGTDFTLTISNVQSEDLANYFCQQYNSYPSTFGSGTKLEIK
B3: murine anti-human MASP-2 monoclonal antibody 120 (antibody, V domains shown)
VH: DVQLQESGPGLVKPSQSLSLTCTVTGYSITSDYAWSWIRQFLRNKLEWMGYISYSGRTSYNPSLKSRISITRDTSKNQFFLQLNSVTTEDTATYFCARLITGGDYWGQGTSVTVSS
VL: DIVMTQSQKFMSTSVGDRVSVTCKASQNVGINVVWYQQKPGQSPKALIYSASYRFSGVPDRFTGSGSGTDFTLTISNVQSEDLAEYLCLQYDINPLTFGAGTKLELK
B4: murine anti-human MASP-2 monoclonal antibody 100 (antibody, V domains shown)
VH: DVQLVESGGGLVQPGGSRKLSCAASGFTFSNFGIHWVRQAPEKGLEWVAYISSGGSAVFYADTVKGRFTISRDNSKNTLFLQMTSLRSEDTAIYYCAKSDRYFDYWGQGTTLTVSS
VL: DIVLTQSPASLAVSLGQRATISCRASQSVSSSSYRYIHWYQQKPGQPPRLLIKYASNLESGVPARFSGSGSGTDFTLNIHPVEEEDTATYYCQHSWETPWTFGGGTKLEIK
B5: murine anti-human MASP-2 monoclonal antibody 136 (antibody, V domains shown)
VH: QVQLQQSGAELAKPGASVKMSCKASGNTFTNYWMHWIKQRPGQGLEWVGYINPNTGYTDFNQKFKDKATLTADKSSTTAYMQLISLTSEDSTVYYCTLQLGRNFDYWGQGTTLTVSS
VL: DIVLTQSPASLGVSLGQRATISCRASQSVSSSRSTYIHWYQQKPGQPPKLLIKYSSNLESGVPARFSGGGSGTDFTLNIHPVEAEDTATYYCHQSWEIPYTFGGGTKLEIR
B6: murine anti-human MASP-2 monoclonal antibody 115 (antibody, V domains shown)
VH: DVQLVESGGGLVQPGGSRKLSCAASGFTFSSFGMHWVRQAPEKGLEWVAYISSGSSSFFYADTVKGRFTISRDNPKNTLFLQMTSLRSEDTAMYYCARGDRNFDVWGAGTTVTVSS
VL: B4 VL with S30T, S33R, R35S, I37M, Y40F, R49N, Y54H, E85D, T98V
B7: murine anti-human MASP-2 monoclonal antibody 126 (antibody, V domains shown)
VH: B6 VH with A23V, F58S, A61V, D104E
VL: B4 VL with S33R, R35S, I37M, Y40F, R49N, Y54H, H94Q, T98V
B8: humanized anti-human MASP-2 monoclonal antibody 126-Hu (antibody, human IgG4 S228P, kappa, V domains shown)
VH: QVQLVESGGGVVQPGRSLRLSCAASGFTFSSFGMHWVRQAPGKGLEWVAYISSGSSSSFYVDTVKGRFTISRDNSKNTLYLQMNSLRAEDTAVYYCARGDRNFEVWGQGTTVTVSS
VL: DIQMTQSPSSLSASVGDRVTITCRASQSVSSSRYSYMHWFQQKPGKAPKLLIYHASNLESGVPSRFSGSGSGTDFTLTISSLQPEDFATYYCQQSWEVPWTFGQGTKLEIKR
B9: humanized anti-human MASP-2 monoclonal antibody 136-Hu (antibody, human IgG4 S228P, kappa, V domains shown)
VH: QVQLVQSGAEVKKPGASVKVSCKASGNTFTNYWMHWIRQAPGQGLEWMGYINPNTGYTDFNQKFKDRVTLTADKSTSTAYMELSSLRSEDTAVYYCTLQLGRNFDYWGQGTTVTVSS
VL: B8 VL with Y34S, S35T, M37I, F40Y, H54Y, A55S, Q93H, V98I, W100Y
B10: humanized anti-human MASP-2 monoclonal antibody 124-Hu (antibody, human IgG4 S228P, kappa, V domains shown)
VH: QVQLQESGPGLVKPSQTLSLTCTVSGYSITSDYAWNWIRQPPGKGLEWMGYISYSGRTSYNPSLKSRLTISRDTSKNQFSLKLSSVTAADTAVYYCARHYGDFWGQGTTVTVSS
VL: DIQMTQSPSSLSASVGDRVTITCKASQNVDTNVAWYQQKPGKAPKLLIYSASYRYSGVPSRFSGSGSGTDFTLTISSLQPEDFATYYCQQYNSYPSTFGQGTKLEIKR
B11: humanized anti-human MASP-2 monoclonal antibody 100-Hu (antibody, human IgG4 S228P, kappa, V domains shown)
VH: B4 VH with D1Q, L11V, R18L, K19R, E42G, F80Y, T84N, S88A, I93V, L112V
VL: EIVLTQSPATLSLSPGERATLSCRASQSVSSSSYRYIHWYQQKPGQAPRLLIYYASNLESGIPARFSGSGSGTDFTLTISSLEPEDFAVYYCQHSWETPWTFGQGTKLEIKR

One assay deals with Fc-hMASP-2A-CCS (human) [IgG part: P01857]. Description: ELISA, plate coated with 1 ug/mL Fc-hMASP-2A-CCS.
Fc-hMASP-2A-CCS (human) [IgG part: P01857], sequence (P01857 other isoform, or with tags, fused parts or gaps limits assumed, form in doubt): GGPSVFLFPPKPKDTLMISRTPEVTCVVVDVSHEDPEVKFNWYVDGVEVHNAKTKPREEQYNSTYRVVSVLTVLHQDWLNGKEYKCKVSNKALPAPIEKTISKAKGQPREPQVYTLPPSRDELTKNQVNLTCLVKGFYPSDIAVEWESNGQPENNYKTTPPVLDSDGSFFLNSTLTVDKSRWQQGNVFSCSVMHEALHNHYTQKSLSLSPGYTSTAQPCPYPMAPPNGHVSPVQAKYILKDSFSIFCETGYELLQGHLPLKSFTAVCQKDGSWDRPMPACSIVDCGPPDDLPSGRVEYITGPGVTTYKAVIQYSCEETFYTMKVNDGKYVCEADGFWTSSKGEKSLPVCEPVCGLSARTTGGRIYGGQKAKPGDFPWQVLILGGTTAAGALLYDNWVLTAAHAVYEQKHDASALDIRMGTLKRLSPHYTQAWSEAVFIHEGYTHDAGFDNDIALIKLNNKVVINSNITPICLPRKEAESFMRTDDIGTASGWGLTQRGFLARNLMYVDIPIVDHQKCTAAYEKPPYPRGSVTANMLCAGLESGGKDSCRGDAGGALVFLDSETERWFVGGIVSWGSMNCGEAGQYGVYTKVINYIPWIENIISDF
By EC50 is commonly meant the midpoint of the concentration-response curve. A low value points to greater potency. As for B1, the EC50 worked out at 0.149 nM.
Take B2: the EC50 is 0.182 nM.
Still for that read-out and setting: for B3 the value was 0.16 nM; for B4, 0.173 nM; for B5, 0.143 nM.
The molecule B6 yielded an EC50 of 0.151 nM. The EC50 values of the last two molecules are within 1.5-fold of each other.
On the same count and under the same terms, for B7 the value was 0.161 nM.

The target is the same in the next assay. Description: ELISA according to Example 5, plate coated with Fc-hMASP-2A-CCS.
In turn, B8 registered an EC50 of 0.246 nM. This lies in the sub-nanomolar range.
Still for that read-out and setting: for B9 the value was 0.26 nM; for B10, 0.25 nM.
With B11, the EC50 was determined as 0.297 nM. This EC50 and that of the molecule before are within 1.5-fold of each other.

For the next assay, the target named is MASP-2-CCS-Flag (human) (UniProt O00187). Description: SPR, Biacore T200, antibody captured on Protein A chip, MASP-2-CCS-Flag as analyte. Background: SPR reads the build-up and loss of mass on a sensor chip optically.
MASP-2-CCS-Flag (human), sequence (O00187 other isoform, or with tags, fused parts or gaps limits assumed, form in doubt): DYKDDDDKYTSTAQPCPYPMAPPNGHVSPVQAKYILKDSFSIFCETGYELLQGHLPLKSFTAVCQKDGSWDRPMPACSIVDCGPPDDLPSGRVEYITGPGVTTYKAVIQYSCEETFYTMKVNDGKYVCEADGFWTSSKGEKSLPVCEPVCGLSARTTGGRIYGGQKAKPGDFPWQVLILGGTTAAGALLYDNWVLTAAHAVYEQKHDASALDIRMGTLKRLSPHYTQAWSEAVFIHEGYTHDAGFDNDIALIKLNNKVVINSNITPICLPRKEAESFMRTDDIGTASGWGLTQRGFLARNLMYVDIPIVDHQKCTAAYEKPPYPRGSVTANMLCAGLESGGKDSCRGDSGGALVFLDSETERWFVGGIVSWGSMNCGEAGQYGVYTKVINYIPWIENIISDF
Usually Kd stands for the concentration at which binding is half-saturated. Higher therefore signals lower affinity. Usually koff stands for a measure of how fast the partners let go of each other. The low end stands for slow dissociation, the high end for fast dissociation. The term kon denotes the rate constant with which the complex forms. The low end stands for slow association, the high end for fast association. Molecule B8 yielded a Kd of 0.148 nM, a fold affinity against the reference antibody Narsoplimab of 60 times, a koff of 6.33e-05 s⁻¹ and a kon of 428000 M⁻¹ s⁻¹.
Take B9: the Kd was found to be 0.998 nM, the koff came out at 0.000589 s⁻¹ and the kon came out at 590000 M⁻¹ s⁻¹.
B10 yielded a Kd of 0.35 nM, a fold affinity against the reference antibody Narsoplimab of 25 times, a koff of 0.000582 s⁻¹ and an on-rate (kon) of 1.66e+06 M⁻¹ s⁻¹.
As to B11, the Kd stood at 0.701 nM, the koff amounted to 0.000298 s⁻¹ and the kon is 428000 M⁻¹ s⁻¹.
